Reference: patent publication US20210095300, “INTERFERING WITH HD-ZIP TRANSCRIPTION FACTOR REPRESSION OF GENE EXPRESSION TO PRODUCE PLANTS WITH ENHANCED TRAITS” (Monsanto Technology LLC, published 2021)
Changes are numbered by the printed parent chain.

Columns and labels:
ATHB17Δ113-Δ194-224 [1] = molecular target: T1, ATHB17Δ113-Δ194-224 (Arabidopsis thaliana); test: SPR; leucine zipper deletion
T1 chain: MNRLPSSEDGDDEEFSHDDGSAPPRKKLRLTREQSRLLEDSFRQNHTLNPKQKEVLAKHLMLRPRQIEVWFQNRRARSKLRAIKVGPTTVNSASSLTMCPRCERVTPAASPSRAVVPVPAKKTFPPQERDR
Text: (§1) HD-Zip I and II proteins bind to similar cis elements (CAAT(N)ATTG) under in vitro conditions (Sessa et al., EMBO J 12:3507-3517, 1993); Meijer et al., Mol Gen Genet 263:12-21, 2000); Frank et al., Plant J Cell Molec Biol 15:413-421, 1998); Deng et al., Plant Mol Biol 49:601-610, 2002). HD-Zip II members bind preferentially to the pseudo-palindromic sequence CAAT(C/G)ATTG (SEQ ID NO:55) (Sessa et al., EMBO J 12:3507-3517, 1993), whereas members of the HD-Zip I subfamily bind preferentially to a pseudo-palindromic sequence that differs from that of HD-Zip II at the central nucleotide (CAAT(A/T)ATTG) (SEQ ID NO:56) (Ariel et al., Trends Plant Sci 12:419-426, 2007). The DNA-binding properties of ATHB17Δ113 was tested in vitro using a surface plasmon resonance (SPR) assay for both class I and class II recognition sequences. The oligonucleotides used in this assay were […] (Class II), […] (Class I), and […] (non consensus), where the pseudo-palindromic sequences flanked by four nucleotides at the 5′ end and 3′end of the oligo are underlined.
(§2) ATHB17 amino acid substitutions and domain deletions were generated by comparing the ATHB17 protein sequence with those of mammalian HD and other plant HD-Zip transcription factors. These variants were evaluated for their DNA binding properties using SPR on Biacore 2000 as described in Example 2.

[2] = molecular target: T2, ATHB17Δ113-T196A-L203A-L210A-L217A-L224A (Arabidopsis thaliana, UniProt Q8S9N6 SEQ:1-162); test: SPR; leucine zipper mutant
T2 chain: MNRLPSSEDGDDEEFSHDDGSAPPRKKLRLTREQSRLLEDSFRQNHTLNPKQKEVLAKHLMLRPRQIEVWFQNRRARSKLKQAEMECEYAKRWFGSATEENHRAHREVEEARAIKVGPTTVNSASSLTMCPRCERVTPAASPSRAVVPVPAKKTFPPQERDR

ATHB17Δ113-R190K [3] = molecular target: T3, ATHB17Δ113-R190K (Arabidopsis thaliana, UniProt Q8S9N6 SEQ:1-162, R190K (full-length numbering)); test: SPR; reduced affinity to BS2; conditions: chain copies: 2 (homodimer, inferred)
T3 sequence: T2 chain with R77K, A83T, A90L, A97L, A104L, A111L

ATHB17Δ113-Δ138-195 [4] = molecular target: T4, ATHB17Δ113-Δ138-195 (Arabidopsis thaliana); test: SPR; homeodomain deletion
T4 chain: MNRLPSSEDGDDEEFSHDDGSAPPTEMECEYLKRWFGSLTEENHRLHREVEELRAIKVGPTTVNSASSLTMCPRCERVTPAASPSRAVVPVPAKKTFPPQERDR
Text: as §1, §2

ATHB17Δ113-W183F [5] = molecular target: T5, ATHB17Δ113-W183F (Arabidopsis thaliana, UniProt Q8S9N6 SEQ:1-162); test: SPR; asterisked in table; text says 11 uM, significantly reduced but not completely suppressed; conditions: chain copies: 2 (homodimer, inferred)
T5 chain: T2 chain with W70F, A83T, A90L, A97L, A104L, A111L
Text: as §1, §2

ATHB17Δ113-F155L [6] = molecular target: T6, ATHB17Δ113-F155L (Arabidopsis thaliana, UniProt Q8S9N6 SEQ:1-162); test: SPR; conditions: chain copies: 2 (homodimer, inferred)
T6 chain: T2 chain with W70F, A83T, A90L, A97L, A104L, A111L
Text: as §1, §2

[7] = molecular target: T7, ATHB17Δ113-C200A-C243S-C246S (Arabidopsis thaliana, UniProt Q8S9N6 SEQ:1-162); test: SPR
T7 chain: T2 chain with A83T, C87A, A90L, A97L, A104L, A111L, C130S, C133S
Text: as §1, §2

ATHB17Δ113-C246S [8] = molecular target: T8, ATHB17Δ113-C246S (Arabidopsis thaliana, UniProt Q8S9N6 SEQ:1-162); test: SPR; conditions: chain copies: 2 (homodimer, inferred)
T8 chain: T2 chain with A83T, A90L, A97L, A104L, A111L, C133S
Text: as §1, §2

ATHB17Δ113-C243S [9] = molecular target: T9, ATHB17Δ113-C243S (Arabidopsis thaliana, UniProt Q8S9N6 SEQ:1-162); test: SPR; conditions: chain copies: 2 (homodimer, inferred)
T9 chain: T2 chain with A83T, A90L, A97L, A104L, A111L, C130S
Text: as §1, §2

ATHB17Δ113-C243S-C246S [10] = molecular target: T10, ATHB17Δ113-C243S-C246S (Arabidopsis thaliana, UniProt Q8S9N6 SEQ:1-162); test: SPR; conditions: chain copies: 2 (homodimer, inferred)
T10 chain: T2 chain with A83T, A90L, A97L, A104L, A111L, C130S, C133S
Text: as §1, §2

[11] = molecular target: T11, ATHB17Δ113-V182A-Q185A-N186A (Arabidopsis thaliana, UniProt Q8S9N6 SEQ:1-162); test: SPR; no binding within the concentration range used
T11 chain: T2 chain with V69A, Q72A, N73A, A83T, A90L, A97L, A104L, A111L
Text: as §1, §2

ATHB17Δ113 [12] = molecular target: T12, ATHB17Δ113 (Arabidopsis thaliana, UniProt Q8S9N6 SEQ:1-162); test: SPR; Biacore 2000; kon 42.3e5, koff 880.6e-4; conditions: chain copies: 2 (homodimer, inferred)
T12 chain: T2 chain with A83T, A90L, A97L, A104L, A111L
Text: as §1, §2

[13] = molecular target: T11, ATHB17Δ113-V182A-Q185A-N186A; test: SPR; loses interaction with BS1
Text: as §1, §2

ATHB17Δ113 [14] = molecular target: T12, ATHB17Δ113; test: SPR; Biacore 2000; unit from p118; conditions: chain copies: 2 (homodimer, inferred)
ATHB17Δ113-Δ138-195 [15] = molecular target: T4, ATHB17Δ113-Δ138-195; test: SPR; homeodomain deletion; similar results stated
Text: as §1, §2

ATHB17Δ113-R190K [16] = molecular target: T3, ATHB17Δ113-R190K; test: SPR; no significant change vs parent; conditions: chain copies: 2 (homodimer, inferred)
[17] = molecular target: T11, ATHB17Δ113-V182A-Q185A-N186A; test: SPR; random DNA
Text: as §1, §2

ATHB17Δ113-W183F [18] = molecular target: T5, ATHB17Δ113-W183F; test: SPR; random DNA; conditions: chain copies: 2 (homodimer, inferred)
Text: as §1, §2

ATHB17Δ113-F155L [19] = molecular target: T6, ATHB17Δ113-F155L; test: SPR; random DNA; conditions: chain copies: 2 (homodimer, inferred)
Text: as §1, §2

[20] = molecular target: T7, ATHB17Δ113-C200A-C243S-C246S; test: SPR; random DNA
Text: as §1, §2

ATHB17Δ113-C246S [21] = molecular target: T8, ATHB17Δ113-C246S; test: SPR; random DNA; conditions: chain copies: 2 (homodimer, inferred)
Text: as §1, §2

ATHB17Δ113-C243S [22] = molecular target: T9, ATHB17Δ113-C243S; test: SPR; random DNA; conditions: chain copies: 2 (homodimer, inferred)
Text: as §1, §2

ATHB17Δ113-Δ194-224 [23] = molecular target: T1, ATHB17Δ113-Δ194-224; test: SPR; random DNA
Text: as §1, §2

ATHB17Δ113-C243S-C246S [24] = molecular target: T10, ATHB17Δ113-C243S-C246S; test: SPR; random DNA; conditions: chain copies: 2 (homodimer, inferred)
Text: as §1, §2

[25] = molecular target: T2, ATHB17Δ113-T196A-L203A-L210A-L217A-L224A; test: SPR; random DNA
Text: as §1, §2

ATHB17Δ113-Δ138-195 [26] = molecular target: T4, ATHB17Δ113-Δ138-195; test: SPR; random DNA
Text: as §1, §2

ATHB17Δ113 [27] = molecular target: T12, ATHB17Δ113; test: SPR; random DNA did not interact with any protein tested; conditions: chain copies: 2 (homodimer, inferred)
Text: as §1, §2

B1: Class II oligo (BS2) (dsDNA)
DNA 1: CAGACAATCATTGCGGC
DNA 2: GCCGCAATGATTGTCTG
In the case of B1, the Kd (ATHB17Δ113-Δ194-224 [1]) is reported as 4800 nM, the binding result [2] is reported as “no binding” and the Kd (ATHB17Δ113-R190K [3]) is reported as 68.2 nM. For the same binder, the binding result (ATHB17Δ113-Δ138-195 [4]) was “no binding”, the Kd (ATHB17Δ113-W183F [5]) was 11000 nM and the Kd (ATHB17Δ113-F155L [6]) was 3630 nM. For the same binder, the binding result [7] was “no binding”, the Kd (ATHB17Δ113-C246S [8]) was 63.6 nM and the Kd (ATHB17Δ113-C243S [9]) was 82.2 nM. The Kd (ATHB17Δ113-C243S-C246S [10]) was 41.1 nM, the binding result [11] was “no binding” and the Kd (ATHB17Δ113 [12]) was 20.4 nM.

B2: Class I oligo (BS1) (dsDNA)
DNA 1: CAGACAATTATTGCGGC
DNA 2: GCCGCAATAATTGTCTG
With B2 the binding result [13] was “no binding”, the Kd (ATHB17Δ113 [14]) was 37.7 nM and the binding result (ATHB17Δ113-Δ138-195 [15]) was “no binding”. It also gave a Kd (ATHB17Δ113-R190K [16]) of 25.7 nM.

B3: non consensus oligo (random DNA) (dsDNA)
DNA 1: CAGCTCAGTCTGACGGC
DNA 2: GCCGTCAGACTGAGCTG
B3: no binding [17]; no binding (ATHB17Δ113-W183F [18]); no binding (ATHB17Δ113-F155L [19]). B3: no binding [20]; no binding (ATHB17Δ113-C246S [21]); no binding (ATHB17Δ113-C243S [22]). B3: no binding (ATHB17Δ113-Δ194-224 [23]); no binding (ATHB17Δ113-C243S-C246S [24]); no binding [25]. B3: no binding (ATHB17Δ113-Δ138-195 [26]); no binding (ATHB17Δ113 [27]).
